Measurements reported in the nanobody polyreactivity screen of Harvey et al. (2022).

Experiment: yeast display, Sf9 membrane polyspecificity reagent, FACS + sequencing; frameworks hold sequencing errors
In short: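 A nanobody's polyreactivity label depends on the gate it was sorted from. Yeast display cells were stained with 10% biotinylated, detergent-solubilized Sf9 membrane reagent for 1 hour at 4 °C, enriched on streptavidin microbeads and sorted by FACS. The low and high (top ~1%) gates were set on anti-HA fluorescence for expression and streptavidin fluorescence for reagent binding.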

QVQLVESGGGLVQAGGSLRLSCAASGSTFFYYTMGWYRQAPGKERELVASITNRGGNTYYADSVKGRFTISRDNAKTTVYLQMNSLKPEDTAVYYCARRYYWYSGRYDYWGQGTQVTVSS
polyreactivity (PSR sort gate): high polyreactivity

QVQLVESGGGLVQAGGSLRLSCAASGRTFPGNAMGWYRQAPGKERELVAAISKSSSRTYYADSVKGRFTISRDNAKNTVYLQMNSLKPEDTAVYYCAASSFNNGHRYDYWGQGTQVTVSS
polyreactivity (PSR sort gate): high polyreactivity

QVQLVESGGGLVQAGGSLRLSCAASGNTFNVYAMGWYRQAPGKERELVAAITLSGGSTYYADSVKGRFTFSRDNAKNTVYLQMNSLKPEDTAVYYCNAEDDGTDYDYWGQGTEVTVSS
polyreactivity (PSR sort gate): low polyreactivity

QVQLVESGGGLVQAGGSLRLSCAASGITFQKNAMGWDRPAPGKEMEWVAGITWRGSTYYADSVKGRFTISRDNAKNTVYLQMNSLKPEETAVYYCAADPFYWYRSVRGEYWGQGTQVTVSS
polyreactivity (PSR sort gate): low polyreactivity

QVQLVESGGGLVQAGGSLRLSCAASGSTFSTYDMGWYRQAPGKEREFVAAISDSGGSTYYADSVKGRFTISRDNAKNTVYLQMNSLKPEDTAVYYCNATVVFVQYVDYDYWGQGTQVTVSS
polyreactivity (PSR sort gate): low polyreactivity

QVQLVESGGGLVQAGGSLRISCAASGRTFGANAMGWYRQAPGKERELVAGITSSGGSTSYADSVKGRFTISRDNAKNTVYLQMNSLKPEDTAVYYCAKDVYQHIFDVILGGYDSWGLGTQVTVSS
polyreactivity (PSR sort gate): low polyreactivity

QVQLVESGGGLVQAGGSLRLSCAASGYTVAFYDMGWYRQAPRKERELVAAISASGGSTYYADSVKGRFTISRDNAKNTVYLQMNSLKPEDTAVYYCAARSKYRGDMDYWGQGTQVTVSS
polyreactivity (PSR sort gate): high polyreactivity

QVQLVESGGGLVQAGGSLRLSCAASGITSPAYAMGWYRQAPGKEREFVAAISSSGVSTYYADSVKGRFTISRDNAKNTVYLQMNRLKPEDTAVYYCNTVSWPLSSKYYYWGQGTQVTVSS
polyreactivity (PSR sort gate): high polyreactivity

QVQLVESVGGLVQAGGSLRLSCAASGSTFEDNAMGWYRQAPGKERELVAAITTGGGSTYYADSVKGRFTISRDNAKNTVYLQINSLKPEDTEVYYCNAEHGWFGLLFIATANEYDYLGQGTQVTVSS
polyreactivity (PSR sort gate): low polyreactivity

QVQLVESGGGLVQAGGSLRLSCAASGFTFRANGMGWYRQAPGKERELVATITSGGTTNYADSVKGRLTISRDNAKNTVYLQMNSLKPEDTAVYYCNAGSVSDRQMDYWGQGTQVTVSS
polyreactivity (PSR sort gate): low polyreactivity

QVQLVESGGGLVQAGGSLRLSCAASGFIFQYNTMGWYRQAPGKERELVAVITRTGSTNYADSVKGRFTISRDNGKNTVYLQMNSLQPEDTAVYYCATSVYSRPRKPRYYYWGQGTQVTVSS
polyreactivity (PSR sort gate): high polyreactivity

QVQLVDSGGGLVQAGGSLRLTFAASGSIFAWYAMGLYRQEPGKERELVAVITRGGSTNYADSVKGRFTISRDNAKNTVYLPMISQKPEDTAVYYCAAGSYYSWYPFDYWGQGTQLTVSS
polyreactivity (PSR sort gate): low polyreactivity

QVQLVESGGGLVQAGGSLRLSCAASGRTFSRNAMGWYRQAPGKERELVATITSDGSTNYADSVKGRFTISRDNAKITVYLQMNSLKPEDTAVYYCAAGEQSSIIGAHDYWGQGTQVTVSS
polyreactivity (PSR sort gate): low polyreactivity

QVQLVESGGGLVQAGGSLRLSCAASGGTIVYYAMGWYREAPGKERELVAAINWSGGSTYYADSVKGRFTISRDKAKNTVYLQMNSLKPEDTAVLLLQRSGLRRSGVWFDYWGQGTQVTVSS
polyreactivity (PSR sort gate): low polyreactivity

QVQLVESGGGLVQAGGSLRLSCAASGFTFERNAMGWYIQAPGKERELVATINGSSDSTYYADSVKGRFTISRDNAKNTVYLQMNSLKPEDTAVYYCNADSITEGNSRYSHFDYWGQGTQVTVSS
polyreactivity (PSR sort gate): low polyreactivity

QVQLVESGGGLVQAGGSLRLSCAASGSIFSFYAMGWYRQAPGKEMELVATISSGDNTNYADSVKGRFTISRDNAKNTVYLQMNSLKPEDNAVYYCAADAWGVDREYDYWGQGTQVTVSS
polyreactivity (PSR sort gate): low polyreactivity

QVQLVESVGGLVQAGGSLRLSCAASGLMFWYYTMGWYRQAPGKERELVAAIRSGGSTNYADSVKGRFTISRDNAKNTVYLQMNSLKPEDTAVYYCAARKWHSAYDYWGQGTQVTVSS
polyreactivity (PSR sort gate): high polyreactivity

QVQLVESGGGLVQAGGSLRLSCAASGRTFSWYAMGWYRQAPGKEREFVATISASGGSTYYADSVKGRFTISRDNAKNTVYLQMNSLKPEDTAVYYCAADRSIRFFSPANYDYWGQGTQVTVSS
polyreactivity (PSR sort gate): high polyreactivity

QVQLVESGGGLVQAGGSLRLSCAASGSTFYAYAMGSYRQSPGKERELVAVITSGGTTKYADSVKGRFTISRDNAKNTVYLQLNSLKPEDTAVYYCNVAGRDYAVRWGSFVFWGQGTQVTVSS
polyreactivity (PSR sort gate): low polyreactivity

QDQLVESGGGLVQAGGSLRLSCAASGRIFSRNAMGWYRQAPGKERELVAAITWRGGSTYYADSVKGRFTISRDNAKNTVYLQMTSLKPEDTAVYYCNRDYRQYGYAYSGRYYWGLGTQVTVSS
polyreactivity (PSR sort gate): high polyreactivity

QVQLVESGGGLVQAGGSLRLSCAASGFTFAYNAMGWYRQAPGKETELVAAINSGGGRTYYADSVKGRFTISRDNAKNTVYLQMNSLKPEATAVYYCNAYPYKLDYDYWGQGTQVTVSS
polyreactivity (PSR sort gate): high polyreactivity

QVQLVESGGGLVQAGGSLRLSCAASGSTVEYNAMGGYRPATGKERELVAAITSGGSTTYADSVKGRFTISRDNAKNTVYLQMNSLKPEDTAVYYCAAVGRRVSAWYYYWGQGTQVTVSS
polyreactivity (PSR sort gate): high polyreactivity

QVQLVDSGGGLVQAGGSLRLSCAAYGRIFGIYTMGWYRQAPGKERELVAAIRFSGSRTYYADSVKGRFTISRDNAKNTVYLQMNSLKPEDTAVYYCNADWWFYRLRNEYWGQGTQVTVSS
polyreactivity (PSR sort gate): high polyreactivity

QVHLVESGGGLVQAGGSLRLSCAASGRIFATNAMGWYRPAPGKERELVATITRSAGRTYYADSVKGRFTISRDNAKNTVYLQMNSLKPEDTAVYYCAASYWDTEPGYREYDYWGQGTQVTVSS
polyreactivity (PSR sort gate): low polyreactivity

QVQLVESGGGLVQAGGSLRLSCAASGSIFWLYAMGWYRQAPGKERELVAAINWSTGRTYYADSVKGRFTISRDNAKNTVYLQMNSLKPEDTAVYYCAADLNWWFDYSSPDEMYYWGQGTQVNVSS
polyreactivity (PSR sort gate): high polyreactivity

QVQLVESGGGLVQAGGSLRLICAASGSIIGANAMGWSRQAPGKERELGAAITDNTSTTFYADSVKGRFTISRDIAKNTVYLQMNSLKPEDTAVYYCNADRAVVLSTPLWGEYDYWGQGTQVTVSS
polyreactivity (PSR sort gate): low polyreactivity

QVQLVESGGGLVQAGGSLRLSCAASGSTFQSNAMGWYRQAPGKERELVATITQSGATTYYADSVKGRFTISRDNAKNTVYLQMNSLKPEDTAVYYCNVDTYQKRWFWLDLDGGYWGQGTQVTVSS
polyreactivity (PSR sort gate): low polyreactivity

QVQLVESGGRLVQAGGRLRLSCAASGFIVYFNAMGWYIQAPGKERELVAAIRISGGSTYYADSVKGRFTISRDNAKNTVYLQMNSLKPEDTAVYYCATAPENYVSVGYDYWGQGTQVTVSS
polyreactivity (PSR sort gate): low polyreactivity

QVQQVESGGGLVQAGGSLRLSCAASGFIFFGYAMGWYRQARGKERELVAAITSGGSTYYADSVKGRFTISRDNAKNTVYLQMNSLKPEDTAVYYCAADNSGWWGTGYNYWGQGTQVTVSS
polyreactivity (PSR sort gate): high polyreactivity

QVQLVESGGGLVQAGGSLRLSCAASGITFIRYAMGWYRQAPGKERELVAAIDWDGSSTYYADSVKGRFTISRDNAKNTGYLQMNSLKPEDTSVYYCNTDYTGPDGTDDYDYWGQGTQVTVSS
polyreactivity (PSR sort gate): low polyreactivity

QVQLEESGGGLVQAGGSLRLSCAASGSTFEGYAMGWYRQAPGKERELVAVISSGSITKYADSVKGRFTISRDNAKNTVFLQINSLKPEDTAVYYCARKGGIIFASYLLGGYWGQGTQVTVSS
polyreactivity (PSR sort gate): low polyreactivity

QVQLVESGGGLVQAGGSLRLTCAASGNIFRAYAMGWYRQAPGKERELVAAISWNAGTTYYADSVKGRFTISRDHAKNTVYLQMHSLKPEDTAVYYCAASKLLRRGLCKYYKATYSYDYWGQGTQVTVSS
polyreactivity (PSR sort gate): high polyreactivity

QVQLQESGGGLVLAGGSLRLSCSASGNISVYGSMGWYRQAPGKEREFVATIDPGTNTNYADSVKDRFTISRDNAKNTVYLQMTSLKPEDTAVYYCAVEAGSDGPYRYWGQGTQVTVSS
polyreactivity (PSR sort gate): low polyreactivity

QVQLVESGGGLVQAGGSLRLSCAASGYTFRTNVMGWYRQAPGTERELVATINWRGGSTYYADSVKGRFTISRDYAKNTVYLLINSLKPEDTAVYYCAADGLSNVRQMDYWGQGTQVTVSS
polyreactivity (PSR sort gate): low polyreactivity

QDQLVESGGALVQAGGSLRLSCAPSGGTFWIYAMGWYRQAPGKERELVAGITTSGATTYYADSVKGRFTISRDNAKNTVYLQMNSLKPVDTAVYYCAADEYYRYEYWGHGTQVTVSS
polyreactivity (PSR sort gate): low polyreactivity

QVQLVESGGGLVQAGGSLRLSCAASGSIFWGNAMGCYRQAPGKERELVASISDSGGSTYADSVKGRFTISRDNAKNTVYLQMNSLKPEDTAVYYCAADDWYSAGIRNWYYGGYDYWGQGTQVTVSS
polyreactivity (PSR sort gate): low polyreactivity

QVQIVESGGGLVQAGGSLRLSSPASGRTLPSYAMGWYRQAPGKERELVAAITRSGGRTYYADSVKGRFTISRDNAKYTVYLQMNSLKPEDTAVYDCAARQDDYGKIYYYWGQGSQVTVSS
polyreactivity (PSR sort gate): high polyreactivity

QDQLVESGGGLVQAGGSLRLICAASGMGWFRQAPGKEREFVAVIRWSSGSTYYADSVKGRFTISRDNAKNTVYLQMNSLKPEDTAVYYCAAGGYPSLLHDYDYWGQGTQVTVSS
polyreactivity (PSR sort gate): low polyreactivity

QVQLVESGGGLVQAGGSLRLSCAASGSTFRPYAKGWYRQAPGKERELVAAISNGGNTNYADSVKGRFSISRDNAKNTVYLQMNSLIPEDTAFYYCAKTFRGQPYLRYRYYYWGQGTQVTVSS
polyreactivity (PSR sort gate): high polyreactivity

QVQLVETCGGLDQAGVSLRLSCAASGIIFKTYAMGWYRQAPGKETEYVAPISVSGGGTYYADSVKGRFTISRDNAKNTVYLQMNSPKPEDTAVYYCAARSWYWRYYTLNPYDYWVQGTQVTVSS
polyreactivity (PSR sort gate): high polyreactivity

QDQLVETGGGLVQAGGSLRLSCAASRNTFAQKAMGRSRQAPGKERELVAAITDGTSTNYADSVKGRFTISRDNAKNTVYLQMNSLKPEDKAVYYCAAESLYTLFYWGYDYWGQGTQVTVSS
polyreactivity (PSR sort gate): low polyreactivity

QVQLVESGGGLVQAGGRLRLSCAASGSTFEINVMGWYRQAPGKERELFAAITYSGGSTYYADSVKGRFTISRDNEKNTVYLQMNSLKPEDTAVYYWNADYILDAQYDYWGQGTQVTVSS
polyreactivity (PSR sort gate): low polyreactivity

QVQHVESGGGLVQAGGSLRLSCAASGRTFDRNAMGWYRQPPGKERELVAGITRSGDSTYADSVKVRFTISRDNAKNTVYLQMNSLKPVDTAVYYCNKEGTIGGTRGYWGQGTQVTVSS
polyreactivity (PSR sort gate): low polyreactivity
